In patent US20080241867A1:

Target: hybrid GFP construct containing the protease cleavage sequence SVPSGCG (SEQ ID NO:21) followed by histidine residues (Aequorea victoria (Water jellyfish) (Mesonema victoria)) [GFP: P42212]
Test: cell-based or functional assay

Micrograms of GFP Released by Protease (overnight, IMAC beads): 137 µg
Substance: Pancreatin
